Data on one substance can be found in article PMC12459236.

The assay concerns the target SpyTag-AP205 recombinant protein (self-assembled AP205 nanoparticles) (bacteriophage AP205). The assay can be described thus: SDS-PAGE of covalent coupling; purified ST-AP205 and CTD-SC mixed at designated molar ratios, left overnight at 4°C; covalent SpyTag-SpyCatcher coupling read by SDS-PAGE.

As for “PDCoV S1-CTD-SpyCatcher recombinant protein”, the rate of formation of CTDnps (ST-AP205:CTD-SC molar ratio 4:10) was over 80%.
